One experiment has as its target Cdk1 protein (human) (UniProt P06493). Description: cell-based or functional assay.
The target in experiment [1] is T7-FoxM1B WT protein (CMV T7-FoxM1B; CMV WT FoxM1B 1-748) (human) (UniProt Q08050). Briefly: cell-based or functional assay.

Our source for the FoxM1B transcriptional activity (6×FoxM1B TATA-luciferase reporter, U2OS cells) and FoxM1B transcriptional activity (6×FoxM1B TATA-luciferase reporter, U2OS cells) (% stimulation) values is patent US20130196933A1.

Cdk1 protein (human), sequence (P06493 whole entry): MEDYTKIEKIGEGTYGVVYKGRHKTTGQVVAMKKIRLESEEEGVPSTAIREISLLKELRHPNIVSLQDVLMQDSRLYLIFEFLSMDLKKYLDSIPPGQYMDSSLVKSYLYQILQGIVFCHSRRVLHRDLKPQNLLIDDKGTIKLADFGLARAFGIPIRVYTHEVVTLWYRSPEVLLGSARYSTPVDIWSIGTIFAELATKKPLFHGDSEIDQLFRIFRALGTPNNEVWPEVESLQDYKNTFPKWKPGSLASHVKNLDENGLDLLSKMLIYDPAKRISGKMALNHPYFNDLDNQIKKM

In the case of “T7-FoxM1B L641A mutant protein (from UniProt Q08050 1-763)”, the FoxM1B transcriptional activity (6×FoxM1B TATA-luciferase reporter, U2OS cells) in the experiment with Cdk1 protein (human) is 80 % reduction.

“CBP protein (CREB Binding Protein, CMV-CBP) (enzyme)” came in with a FoxM1B transcriptional activity (6×FoxM1B TATA-luciferase reporter, U2OS cells) (% stimulation) in experiment [1] of 50.
